From PMC11169541 (2024)

T1: SARS-CoV-2 N protein (nucleocapsid) peptide on HLA-A*02:01 (human)
T1 peptide: RTATKAYNV

T2: SARS-CoV N protein (nucleocapsid) peptide on HLA-A*02:01 (human)
T2 peptide: RTATKQYNV

B1: TCR-4 (TCR)
alpha TRAV17*01 TRAJ27*01 CDR3: CATDEDTNAGKSTF
beta TRBV4-1*01 TRBJ1-1*01 CDR3: CASSPDPWGVDTEAFF
B2: TCR-2 (TCR)
alpha TRAV4*01 TRAJ34*01 CDR3: CLVGDVDTDKLIF
beta TRBV20-1*05 TRBJ1-6*01 CDR3: CSASHPGDSPLHF

Key:
[1] = biological target: T1, SARS-CoV-2 N protein (nucleocapsid) …; experiment: multimer staining
[2] = biological target: T2, SARS-CoV N protein (nucleocapsid) …; experiment: multimer staining

Row | Binder | binding result [1] | binding result [2]
1 | B1 | recognises | no recognition
2 | B2 | recognises | no recognition
